B1: KLHL12 (parent)
chain: SMTTPRCYVGATVLRGRLYAIAGY

Variants of: B1
Test: protein stability index of a GFP-peptide fusion (GPS, HEK-293T) (PSI 1-6); higher = more stable
Conditions: c terminus: a fixed tail appended
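Further: lentivirally expressed fusions sorted by FACS into six bins by GFP to DsRed ratio, PSI derived from sequencing read proportions per bin multiplied by bin number.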

Protein stability index: each site, then its substitutions
C7: K 2.18; E 1.47; Q 1.71; H 1.16; R 2.43; F 3.95; I 3.84; D 2.41; T 2.16
G10: P 1.91; A 1.29; F 1.36; N 1.95; H 1.85; I 2.94
A11: P 2.17; D 1.42; K 2.19; N 1.5; M 2; H 1.8
R17: D 1.88; V 2.35; Q 1.85; I 3.46; H 2.17; N 2.17; E 1.68; M 3.27
P5: S 3.27; N 2.22; Y 2.19; W 2.99; Q 2.71; M 2.98
V13: Q 2.85; L 3.54; P 1.95; F 1.85; S 1.88; I 1.84; C 1.58; M 1.73; T 1.03
S1: K 1.92; F 2.24; Q 1.39; G 2.39; R 3.81; D 2.24; E 1.66; A 1.85; I 2.52; L 3.32
A20: G 2.11; H 1.18; W 3.09; R 1.34; T 1.01; D 1.48; Y 2.41
T3: P 1.59; C 2.75; K 2.08; A 2.97; H 2.34
T12: P 1.94; V 3.43; Y 4.56; A 1.68; C 2.41; G 1.18
T4: H 3.03; S 2.3; M 3.38; D 2.27; P 1.93; K 2.69
L18: T 1.78; N 2; S 1.36; Y 2.68; C 2.93; P 1.87; V 2.08; R 1.9
Y24: P 2.64; G 2.13; E 2.33; K 2.17; C 1.82; D 2.03; N 1.75; S 1.27
G16: R 2.39; I 3.21; V 3.05; S 2.46; H 1.98
Y8: Q 2.18; F 2.98; E 1.06; L 2.48; D 1.71; R 1.21
Y19: C 2.91; K 1.79; A 1.65; T 2.02; R 1.77; M 1.79
M2: E 1.68; D 2.48; Q 1.48; I 1.65; A 2.19; P 1.33
G23: R 1.97; T 2.54; L 3.25; P 2.39
I21: Q 1.67; K 1.57; V 2.33; H 1.59; G 1.78; M 1.28; R 1.93; L 2.73
L14: R 1.99; K 1.93; C 2.48; A 1.79; W 3.9; Q 2.76; F 1.77; H 1.62
R15: N 1.95; T 2.62; K 2.57; D 2.78; W 1.66; H 2.64; S 1.63; Y 3.51; V 3.43; Q 1.46
R6: I 1.55; K 2.04; S 2.42; A 1.73
A22: F 2.3; S 1.26; M 2.01; I 3.06; G 1.24; N 1.3; P 2.08; D 2.12; Q 1.52
V9: H 2.62; G 1.93; T 1.74; K 1.63; F 2.87; M 2.43; Q 1.96

Reference: the supplement of paper PMC10567573
